Publication PMC11500499, “Molecular dissection of the chromosome partitioning protein RocS and regulation by phosphorylation”

Target: T1, RocS WT-ΔAH (Streptococcus pneumoniae R6, UniProt Q8DQ15 1-152)
T1 sequence: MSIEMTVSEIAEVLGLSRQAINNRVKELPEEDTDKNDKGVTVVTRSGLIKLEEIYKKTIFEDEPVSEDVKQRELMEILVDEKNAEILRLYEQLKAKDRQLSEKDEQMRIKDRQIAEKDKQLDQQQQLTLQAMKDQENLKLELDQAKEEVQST
Assay: MST; MST: 25 mM Tris/HCl pH 7.5, 100 mM NaCl, 5% glycerol, 0.025% Tween-20, 25 C, 10 nM DNA probe; EMSA: 25 mM Tris/HCl pH 7.5, 100 mM NaCl, 5% glycerol, 100 ng DNA
Details: protein: recombinant; tags: C-terminal 6xHis, removed with TEV protease; label: 5' Cy5 on strand 1; blunt

B1: dnaC_Cy5 (dsDNA)
DNA 1: GTCAACCAAGCTTACGAAGCGTCACAACCAGCTGATGAAATTATTGCTCA
DNA 2: TGAGCAATAATTTCATCAGCTGGTTGTGACGCTTCGTAAGCTTGGTTGAC
Kd: 34 µM
